Measured values published in US20080293923A1 (Genentech, published 2008).

Target: T1, hepatocyte growth factor beta chain (HGF β) containing a Cys604 to Ser mutation (human, UniProt P14210 495-728)
T1 construct: Expressed in insect cells (baculovirus secretion vector pAcGP67), Val495 placed immediately after the secretion signal; Numbering follows full length HGF starting with MWV as 1-3; also called HGF β-chain; HGF-beta
Test: complex formation in solution, size exclusion chromatography
Procedure: Elution fractions were assayed with SDS-PAGE, and those containing the complex were pooled. […] For this, Met, previously purified using Nickel chromatography as described above, was mixed with a combination of PNGase F (Roche) and Endoglycosidase A (Roche) at 1:100 enzyme:Met concentration and incubated at room temperature for 3 hours.

T1 sequence (P14210 other isoform, or with tags, fused parts or gaps limits assumed): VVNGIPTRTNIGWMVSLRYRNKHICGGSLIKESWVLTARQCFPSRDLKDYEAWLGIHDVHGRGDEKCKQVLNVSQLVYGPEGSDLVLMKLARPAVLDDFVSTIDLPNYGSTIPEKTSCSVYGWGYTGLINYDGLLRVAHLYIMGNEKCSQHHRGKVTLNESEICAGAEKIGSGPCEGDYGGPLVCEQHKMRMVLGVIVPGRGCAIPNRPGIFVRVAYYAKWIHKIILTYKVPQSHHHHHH

binding result: binds
B1: extracellular fragment of the Met receptor containing residues 25 to 567 (Sema and PSI domain) with thrombin cleavable site and C-terminal (His)8-tag (receptor)
chain: ECKEALAKSEMNVNMKYQLPNFTAETPIQNVILHEHHIFLGATNYIYVLNEEDLQKVAEYKTGPVLEHPDCFPCQDCSSKANLSGGVWKDNINMALVVDTYYDDQLISCGSVNRGTCQRHVFPHNHTADIQSEVHCIFSPQIEEPSQCPDCVVSALGAKVLSSVKDRFINFFVGNTINSSYFPDHPLHSISVRRLKETKDGFMFLTDQSYIDVLPEFRDSYPIKYVHAFESNNFIYFLTVQRETLDAQTFHTRIIRFCSINSGLHSYMEMPLECILTELVPRGSTKKEVFNILQAAYVSKPGAQLARQIGASLNDDILFGVFAQSKPDSAEPMDRSAMCAFPIKYVNDFFNKIVNKNNVRCLQHFYGPNHEHCFNRTLLRNSSGCEARRDEYRTEFTTALQRVDLFMGQFSEVLLTSISTFIKGDLTIANLGTSEGRFMQVVVSRSGPSTPHVNFLLDSHPVSPEVIVEHTLNQNGYTLVITGKKITKIPLNGLGCRHFQSCSQCLSAPPFVQCGWCHDKCVRSEECLSGTWTQQICLPAIYKHHHHHHHH
notes: Expressed in insect cells (pAcGP67A); The complex was obtained with the unprocessed, single chain Met (not cut by thrombin); For better diffraction Met was deglycosylated with PNGase F and Endoglycosidase A before complex formation; also called Met fragment; Met Sema domain
